Earlier results on one substance are cited in publication PMC9360543.

Data set [1] deals with GRP78 (Homo sapiens) (UniProt P11021).
Data set [2] deals with Integrin αvβ5 (Homo sapiens) (UniProt P06756). Description: solid-phase ELISA-based binding assay.
Sequence of UniProt P06756 (P06756 31-992, chain 1 of 2): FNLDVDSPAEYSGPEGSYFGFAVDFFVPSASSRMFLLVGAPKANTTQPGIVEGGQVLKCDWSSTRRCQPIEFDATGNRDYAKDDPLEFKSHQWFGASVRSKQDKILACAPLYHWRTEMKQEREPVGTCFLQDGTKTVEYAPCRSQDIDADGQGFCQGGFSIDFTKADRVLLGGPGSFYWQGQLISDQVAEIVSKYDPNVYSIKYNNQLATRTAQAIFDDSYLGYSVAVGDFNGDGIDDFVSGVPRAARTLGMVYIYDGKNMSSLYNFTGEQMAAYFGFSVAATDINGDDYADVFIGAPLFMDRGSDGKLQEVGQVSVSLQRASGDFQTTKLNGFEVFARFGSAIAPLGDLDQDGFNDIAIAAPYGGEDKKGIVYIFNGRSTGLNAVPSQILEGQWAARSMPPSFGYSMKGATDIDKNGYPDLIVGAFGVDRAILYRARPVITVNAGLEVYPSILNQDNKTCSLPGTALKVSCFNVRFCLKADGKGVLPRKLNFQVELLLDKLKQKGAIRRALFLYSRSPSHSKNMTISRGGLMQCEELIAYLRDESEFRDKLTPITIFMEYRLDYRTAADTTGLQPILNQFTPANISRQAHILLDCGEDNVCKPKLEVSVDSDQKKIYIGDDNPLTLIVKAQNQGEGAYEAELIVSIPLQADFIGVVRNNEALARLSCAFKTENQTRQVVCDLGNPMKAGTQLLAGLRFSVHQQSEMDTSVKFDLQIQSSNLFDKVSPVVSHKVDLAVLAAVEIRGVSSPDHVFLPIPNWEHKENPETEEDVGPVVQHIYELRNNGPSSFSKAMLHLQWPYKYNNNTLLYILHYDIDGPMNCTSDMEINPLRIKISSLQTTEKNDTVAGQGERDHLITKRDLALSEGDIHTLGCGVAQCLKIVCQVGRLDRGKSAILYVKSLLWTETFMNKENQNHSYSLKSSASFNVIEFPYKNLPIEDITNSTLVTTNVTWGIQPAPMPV
Sequence of UniProt P06756 (P18084 24-719, chain 2 of 2, further chain): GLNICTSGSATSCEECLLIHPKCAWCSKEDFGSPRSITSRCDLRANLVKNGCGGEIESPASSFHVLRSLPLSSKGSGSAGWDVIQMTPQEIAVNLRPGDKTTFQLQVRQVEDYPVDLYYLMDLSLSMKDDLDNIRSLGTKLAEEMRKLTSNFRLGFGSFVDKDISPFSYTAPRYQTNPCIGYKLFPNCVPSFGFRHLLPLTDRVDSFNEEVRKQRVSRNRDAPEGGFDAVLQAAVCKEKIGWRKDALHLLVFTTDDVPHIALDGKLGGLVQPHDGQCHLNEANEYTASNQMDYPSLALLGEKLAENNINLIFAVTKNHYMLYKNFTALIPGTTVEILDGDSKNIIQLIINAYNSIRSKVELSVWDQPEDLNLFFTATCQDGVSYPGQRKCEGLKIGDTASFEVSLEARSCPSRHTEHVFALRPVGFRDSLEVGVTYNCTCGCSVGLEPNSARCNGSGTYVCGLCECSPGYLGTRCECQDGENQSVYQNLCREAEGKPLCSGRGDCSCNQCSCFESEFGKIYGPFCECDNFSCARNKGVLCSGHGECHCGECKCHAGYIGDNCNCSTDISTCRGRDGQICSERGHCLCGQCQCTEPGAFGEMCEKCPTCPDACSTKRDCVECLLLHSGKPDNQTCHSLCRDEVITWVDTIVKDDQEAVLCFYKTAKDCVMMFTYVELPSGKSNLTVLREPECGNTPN

Sequence of UniProt P11021 (P11021 19-654): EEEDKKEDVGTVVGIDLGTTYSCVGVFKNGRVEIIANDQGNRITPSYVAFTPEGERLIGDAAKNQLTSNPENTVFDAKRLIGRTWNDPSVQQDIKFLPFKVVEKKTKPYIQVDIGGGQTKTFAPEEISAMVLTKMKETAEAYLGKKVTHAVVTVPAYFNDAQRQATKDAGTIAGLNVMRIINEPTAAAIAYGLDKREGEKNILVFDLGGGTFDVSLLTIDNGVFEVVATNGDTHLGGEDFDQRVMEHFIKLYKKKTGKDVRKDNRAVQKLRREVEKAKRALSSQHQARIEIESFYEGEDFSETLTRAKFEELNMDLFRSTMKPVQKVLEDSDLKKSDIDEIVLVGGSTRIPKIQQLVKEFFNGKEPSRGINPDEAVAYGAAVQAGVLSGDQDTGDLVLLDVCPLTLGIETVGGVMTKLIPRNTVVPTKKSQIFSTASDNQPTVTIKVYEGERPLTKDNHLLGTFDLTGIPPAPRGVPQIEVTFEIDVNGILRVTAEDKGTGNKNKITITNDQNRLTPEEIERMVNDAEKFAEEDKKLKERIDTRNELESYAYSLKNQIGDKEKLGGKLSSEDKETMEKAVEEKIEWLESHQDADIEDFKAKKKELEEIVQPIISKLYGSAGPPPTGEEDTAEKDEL

Turning to Isthmin-1 (from UniProt B1AKI9), the dissociation constant (Kd) in data set [1] is 0.00858 µM; in data set [2], 40 µM.
